Changes are numbered by the printed parent chain. Numbers in names are those of the source.

T1: hIL10RalphaFc (human, UniProt Q13651)
T1 chain: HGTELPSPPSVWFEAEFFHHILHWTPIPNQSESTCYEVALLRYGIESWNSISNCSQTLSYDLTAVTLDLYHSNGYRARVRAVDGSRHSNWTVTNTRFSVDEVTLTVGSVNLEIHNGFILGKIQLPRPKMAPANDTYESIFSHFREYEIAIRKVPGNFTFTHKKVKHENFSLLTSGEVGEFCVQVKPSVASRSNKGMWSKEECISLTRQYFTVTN

T2: mIL10RalphaFc (mouse, UniProt Q61727)
T2 chain: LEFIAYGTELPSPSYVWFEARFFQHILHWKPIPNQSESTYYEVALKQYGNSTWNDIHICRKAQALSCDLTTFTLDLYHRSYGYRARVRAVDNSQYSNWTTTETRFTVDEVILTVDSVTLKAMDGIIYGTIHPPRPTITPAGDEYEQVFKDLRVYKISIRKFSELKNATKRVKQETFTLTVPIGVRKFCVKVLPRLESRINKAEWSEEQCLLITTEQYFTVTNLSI

B1: h_SS0052_AA (hIL10 WT fused) (protein)
chain: SPGQGTQSENSCTHFPGNLPNMLRDLRDAFSRVKTFFQMKDQLDNLLLKESLLEDFKGYLGCQALSEMIQFYLEEVMPQAENQDPDIKAHVNSLGENLKTLRLRLRRCHRFLPCENKSKAVEQVKNAFNKLQEKGIYKAMSEFDIFINYIEAYMTMKIRNSPGQGTQSENSCTHFPGNLPNMLRDLRDAFSRVKTFFQMKDQLDNLLLKESLLEDFKGYLGCQALSEMIQFYLEEVMPQAENQDPDIKAHVNSLGENLKTLRLRLRRCHRFLPCENKSKAVEQVKNAFNKLQEKGIYKAMSEFDIFINYIEAYMTMKIRN
B2: h_SS0053_AA (hIL10 T100L fused) (protein)
chain: SPGQGTQSENSCTHFPGNLPNMLRDLRDAFSRVKTFFQMKDQLDNLLLKESLLEDFKGYLGCQALSEMIQFYLEEVMPQAENQDPDIKAHVNSLGENLKLLRLRLRRCHRFLPCENKSKAVEQVKNAFNKLQEKGIYKAMSEFDIFINYIEAYMTMKIRNSPGQGTQSENSCTHFPGNLPNMLRDLRDAFSRVKTFFQMKDQLDNLLLKESLLEDFKGYLGCQALSEMIQFYLEEVMPQAENQDPDIKAHVNSLGENLKLLRLRLRRCHRFLPCENKSKAVEQVKNAFNKLQEKGIYKAMSEFDIFINYIEAYMTMKIRNGGSHHHHHHHH
B3: hIL10 T100L (protein)
chain: SPGQGTQSENSCTHFPGNLPNMLRDLRDAFSRVKTFFQMKDQLDNLLLKESLLEDFKGYLGCQALSEMIQFYLEEVMPQAENQDPDIKAHVNSLGENLKLLRLRLRRCHRFLPCENKSKAVEQVKNAFNKLQEKGIYKAMSEFDIFINYIEAYMTMKIRN
B4: hIL10 WT (protein)
chain: B3 chain with L100T
B5: WC163_AA (mIL10 WT fused) (protein)
chain: GNCTHFPVGQSHMLLELRTAFSQVKTFFQTKDQLDNILLTDSLMQDFKGYLGCQALSEMIQFYLVEVMPQAEKHGPEIKEHLNSLGEKLKTLRMRLRRCHRFLPCENKSKAVEQVKSDFNKLQDQGVYKAMNEFDIFINCIEAYMMIKMKSSRGQYSREDNQYSREDNSCTHFPVGQSHMLLELRTAFSQVKTFFQTKDQLDNILLTDSLMQDFKGYLGCQALSEMIQFYLVEVMPQAEKHGPEIKEHLNSLGEKLKTLRMRLRRCHRFLPCENKSKAVEQVKSDFNKLQDQGVYKAMNEFDIFINCIEAYMMIKMKS
B6: SS0051_AA (mIL10 T100L fused) (protein)
chain: B5 chain with T91L, T258L
B7: mIL10 WT (protein)
chain: SRGQYSREDNNCTHFPVGQSHMLLELRTAFSQVKTFFQTKDQLDNILLTDSLMQDFKGYLGCQALSEMIQFYLVEVMPQAEKHGPEIKEHLNSLGEKLKTLRMRLRRCHRFLPCENKSKAVEQVKSDFNKLQDQGVYKAMNEFDIFINCIEAYMMIKMKS
B8: mIL10 T100L (protein)
chain: B7 chain with T100L

The first experiment addresses T1, hIL10RalphaFc. Put plainly: SPR. Background: SPR reads the build-up and loss of mass on a sensor chip optically.
For orientation: Kd means the constant that tells how readily two partners part at equilibrium. A high value points to weaker binding. B1 displayed a Kd of 0.11 nM.

Take B2: binding was characterised by a dissociation constant (Kd) of 0.07 nM.

In the case of B3, the Kd was determined as 0.26 nM.

As to B4, binding was characterised by a dissociation constant (Kd) of 0.06 nM.

Another experiment addresses T2, mIL10RalphaFc. Kind of experiment: SPR.
For the molecule B5, the Kd turned out to be 0.86 nM.

Turning to B6, the Kd came to 0.73 nM.

The molecule B7 showed a Kd of 0.81 nM.

B8 registered a Kd of 1.92 nM.
